Data on 3 molecules can be found in patent CN116262790A (TAIZE HUIKANG BIOMEDICAL CO LTD; BEIJING MIANYI FANGZHOU …, dated 2023).

A word on the Kd: it is the equilibrium constant for the complex coming apart. One may read the koff as the rate constant with which the complex falls apart. For orientation: kon means the rate constant with which the complex forms.

Experiment [1] concerns the target T1, 人CD27蛋白 (Cat: 10039-H03H, Sino Biological Inc.) (human, UniProt P26842 20-192).
T1 construct: Bought recombinant protein coated on the SPR chip
T1 sequence (looked up): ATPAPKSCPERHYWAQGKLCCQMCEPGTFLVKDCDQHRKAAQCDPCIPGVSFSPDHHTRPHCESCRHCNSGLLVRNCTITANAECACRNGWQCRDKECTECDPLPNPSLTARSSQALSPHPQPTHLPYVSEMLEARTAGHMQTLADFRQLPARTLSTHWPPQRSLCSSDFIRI
The experiment can be described thus: SPR (Reichert4), human CD27 protein on chip, antibody at 6.25e-9 as analyte.

Experiment [2] concerns the target T1, 人CD27蛋白 (Cat: 10039-H03H, Sino …). The experiment can be described thus: SPR (Reichert4), human CD27 protein on chip, antibody at 5.00e-8 as analyte.
Experiment [3] has the same target. Briefly: SPR (Reichert4), human CD27 protein on chip, antibody at 1.25e-8 as analyte.
For experiment [4] the target is unchanged. Briefly: SPR (Reichert4), human CD27 protein on chip, antibody at 2.50e-8 as analyte.
For experiment [5], the target named is 人CD27 (HEK::CD27细胞表达) (human) (UniProt P26842). The experiment can be described thus: flow cytometry on cells expressing human CD27. Also on record: concentration or dose not given beside the values. Background: A flow cytometer gives signals particle by particle.
Experiment [6] concerns the target T2, 人CD27 (HEK::CD27细胞表达) (human, UniProt P26842 20-260).
T2 construct: whole, on cells; also called hCD27; 表达人CD27的细胞
T2 sequence (looked up): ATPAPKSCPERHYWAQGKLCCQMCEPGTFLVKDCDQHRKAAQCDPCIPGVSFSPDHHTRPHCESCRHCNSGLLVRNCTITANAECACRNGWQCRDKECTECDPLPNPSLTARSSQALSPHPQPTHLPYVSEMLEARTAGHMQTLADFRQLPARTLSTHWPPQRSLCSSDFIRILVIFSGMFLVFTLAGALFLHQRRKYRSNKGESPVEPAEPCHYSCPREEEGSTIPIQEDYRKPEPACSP
Briefly: flow cytometry on HEK::CD27 cells, 10 ng and 100 ng antibody.

B1: Varlilumab (antibody, V domains shown)
VH: QVQLVESGGGVVQPGRSLRLSCAASGFTFSSYDMHWVRQAPGKGLEWVAVIWYDGSNKYYADSVKGRFTISRDNSKNTLYLQMNSLRAEDTAVYYCARGSGNWGFFDYWGQGTLVTVSS
VL: DIQMTQSPSSLSASVGDRVTITCRASQGISRWLAWYQQKPEKAPKSLIYAASSLQSGVPSRFSGSGSGTDFTLTISSLQPEDFATYYCQQYNTYPRTFGQGTKVEIKR
In the case of B1, the Kd in experiment [1], in experiment [2], in experiment [3] and in experiment [4] was 0.00185 nM throughout. Also, the koff in experiment [1], in experiment [2], in experiment [3] and in experiment [4] was 2.14e-07 s⁻¹ each time. The kon in experiment [1], in experiment [2], in experiment [3] and in experiment [4] was 116000 M⁻¹ s⁻¹ each time.

B2: 6D8 (antibody, V domains shown)
VH: QIQLVQSGPELKKPGETVKISCKASGYTFTNYGMNWVKQAPGKGLKWMGWINTNTGEPTYADDFKGRFAFSLETSATTAYLQINNLKNEDTATYFCAREGDGFDSWGQGTTLTVSS
VL: QFVLTQSPAIMSASPGEKVTMTCSATSSVNYMHWYQQKSGTSPKRWIYDTSRLASGVPARFSGSGSGTSYSLTISSMEAEDAATYYCQQWNTNPWTFGGGTKLEIK
notes: also called 6D8抗体; 鼠抗人CD27单克隆抗体6D8
On to B2, for which the Kd in experiment [1], in experiment [2], in experiment [3] and in experiment [4] was 0.514 nM in each case. Moreover, the koff in experiment [1], in experiment [2], in experiment [3] and in experiment [4] was 9.69e-05 s⁻¹ throughout. Besides, the kon in experiment [1], in experiment [2], in experiment [3] and in experiment [4] was 188000 M⁻¹ s⁻¹ in each case. In experiment [5], this molecule showed a 结合率 of over 85%.

B3: 6D8-G98A (antibody, human IgG4, V domains shown)
VH: QIQLVQSGPELKKPGETVKISCKASGYTFTNYGMNWVKQAPGKGLKWMGWINTNTGEPTYADDFKGRFAFSLETSATTAYLQINNLKNEDTATYFCAREGDAFDSWGQGTTLTVSS
VL: QFVLTQSPAIMSASPGEKVTMTCSATSSVNYMHWYQQKSGTSPKRWIYDTSRLASGVPARFSGSGSGTSYSLTISSMEAEDAATYYCQQWNTNPWTFGGGTKLEIK
notes: also called 嵌合的6D8-G98A; 6D8-G98A(人鼠嵌合抗体)
Consider B3, for which the binding result in experiment [6] is “binds”.
